The numbers were not newly measured in publication PMC10653114, which cites them from elsewhere.

For one series, the target named is Asp43 (UniProt position 417, WTLTFDFPSGQ). The following applies: 298 K; Conc. 0.10 (unit not given; K+/Cl–).
The target in the next series is Asp39 (UniProt position 413, PVDGWDLTFSF). The following applies: 298 K; Conc. 0.10 (unit not given; K+/Cl–).
A further series has as its target Glu41 (UniProt position 41, VFQNRESVLPT). The note with it: 295 K; Conc. 0.10 (unit not given; Na+/Cl–).
The target of a further series is Asp33 (UniProt position 33, FPYSQDGVVFQ). The note with it: 295 K; Conc. 0.10 (unit not given; Na+/Cl–).
Another series addresses Asp25 (UniProt position 25, NLIASDGPFPY). The note with it: 295 K; Conc. 0.10 (unit not given; Na+/Cl–).
The target in a further series is Glu78 (UniProt position 78, GEATQEDYYTG). The following applies: 295 K; Conc. 0.10 (unit not given; Na+/Cl–).
The target of a further series is Glu74 (UniProt position 74, RIITGEATQED). The following applies: 295 K; Conc. 0.10 (unit not given; Na+/Cl–).
A further series addresses Asp79 (UniProt position 79, EATQEDYYTGD). The note with it: 295 K; Conc. 0.10 (unit not given; Na+/Cl–).
A further series concerns the target Glu14 (UniProt position 14, SALPPEATDTL). The note with it: 295 K; Conc. 0.10 (unit not given; Na+/Cl–).
A further series deals with Asp17 (UniProt position 17, PPEATDTLNLI). The following applies: 295 K; Conc. 0.10 (unit not given; Na+/Cl–).
The next series addresses Asp84 (UniProt position 84, DYYTGDHYATF). The following applies: 295 K; Conc. 0.10 (unit not given; Na+/Cl–).
The target of a further series is Asp93 (UniProt position 93, TFSLIDQTC--). The note with it: 295 K; Conc. 0.10 (unit not given; Na+/Cl–).
The target in the next series is Glu54 (UniProt position 54, YGYYHEYTVIT). The note with it: 295 K; Conc. 0.10 (unit not given; Na+/Cl–).
In another series the target is Glu75 (UniProt position 157, KKIEVEFDKGQ). The note with it: 298 K; Conc. 0.10 (unit not given; K+/Cl–).
The target of the next series is Glu10 (UniProt position 92, KKLHKEPATLI). The following applies: 298 K; Conc. 0.10 (unit not given; K+/Cl–).
The target in the next series is Glu142 (UniProt position 224, LNIWSEDNADS). The note with it: 298 K; Conc. 0.10 (unit not given; K+/Cl–).
In the next series the target is Asp143 (UniProt position 225, NIWSEDNADSG). The following applies: 298 K; Conc. 0.10 (unit not given; K+/Cl–).
A further series concerns the target Glu135 (UniProt position 217, AQAKKEKLNIW). The following applies: 298 K; Conc. 0.10 (unit not given; K+/Cl–).
The next series concerns the target Glu101 (UniProt position 183, GKMVNEALVRQ). The following applies: 298 K; Conc. 0.10 (unit not given; K+/Cl–).
In another series the target is Glu129 (UniProt position 211, LLRKAEAQAKK). The following applies: 298 K; Conc. 0.10 (unit not given; K+/Cl–).
The target of a further series is Asp19 (UniProt position 101, LIKAIDGDTVK). The following applies: 298 K; Conc. 0.10 (unit not given; K+/Cl–).
The next series addresses Glu57 (UniProt position 139, EKYGPEASAFT). The note with it: 298 K; Conc. 0.10 (unit not given; K+/Cl–).
The next series has as its target Asp21 (UniProt position 103, KAIDGDTVKLM). The note with it: 298 K; Conc. 0.10 (unit not given; K+/Cl–).
A further series concerns the target Glu122 (UniProt position 204, GNNTHEQLLRK). The note with it: 298 K; Conc. 0.10 (unit not given; K+/Cl–).
The target in the next series is Asp83 (UniProt position 165, KGQRTDKYGRG). The note with it: 298 K; Conc. 0.10 (unit not given; K+/Cl–).
In another series the target is Asp146 (UniProt position 228, SEDNADSGQ--). The following applies: 298 K; Conc. 0.10 (unit not given; K+/Cl–).
The next series has as its target Asp95 (UniProt position 177, AYIYADGKMVN). The following applies: 298 K; Conc. 0.10 (unit not given; K+/Cl–).
The next series addresses Glu52 (UniProt position 134, PKKFNEKYGPE). The note with it: 298 K; Conc. 0.10 (unit not given; K+/Cl–).
The target in the next series is Glu73 (UniProt position 155, NAKKIEVEFDK). The note with it: 298 K; Conc. 0.10 (unit not given; K+/Cl–).
A further series has as its target Glu67 (UniProt position 149, TKKMVENAKKI). The following applies: 298 K; Conc. 0.10 (unit not given; K+/Cl–).
The target of the next series is Asp77 (UniProt position 159, IEVEFDKGQRT). The following applies: 298 K; Conc. 0.10 (unit not given; K+/Cl–).
The target of another series is Glu43 (UniProt position 125, LVDTPETKHPK). The following applies: 298 K; Conc. 0.10 (unit not given; K+/Cl–).
The target in a further series is Asp40 (UniProt position 122, RLLLVDTPETK). The note with it: 298 K; Conc. 0.10 (unit not given; K+/Cl–).

With “Highly charge-depleted protein (PDB 6QFS), S43D/T66H variant (Cellulomonas fimi (parent domain; not stated in the article); S43D;T66H (on the 6QFS charge-depleted background; background substitutions not stated))”, the pKa with Asp43 is reported as 4.32 ± 0.02.

Regarding “Highly charge-depleted protein (PDB 6QFS), T39D variant (Cellulomonas fimi (parent domain; not stated in the article); T39D (on the 6QFS charge-depleted background; background substitutions not stated))”, the pKa in the series with Asp39 is reported as 5.

In the case of “Highly charge-depleted protein (PDB 6QFS), T39D/T66H variant (Cellulomonas fimi (parent domain; not stated in the article); T39D;T66H (on the 6QFS charge-depleted background; background substitutions not stated))”, the pKa with Asp39 is given as 4.07 ± 0.02.

Regarding “Ribonuclease Sa (Streptomyces aureofaciens)”, the pKa is 4.14 ± 0.07 with Glu41; 2.39 ± 0.07 in the series with Asp33; 4.87 ± 0.07 with Asp25; 3.13 ± 0.07 with Glu78; 3.47 ± 0.07 with Glu74; 7.37 ± 0.07 in the series with Asp79. The pKa with Glu14 is 5.02 ± 0.07; with Asp17, 3.72 ± 0.07; in the series with Asp84, 3.01 ± 0.07; with Asp93, 3.09 ± 0.07; in the series with Glu54 it was 3.42 ± 0.07.

“Staphylococcal nuclease, Delta+PHS variant (Staphylococcus aureus; G50F;V51N;P117G;H124L;S128A;del44-49)”: the pKa is 3.26 ± 0.05 with Glu75; 2.82 ± 0.09 in the series with Glu10; 4.49 ± 0.04 in the series with Glu142; 3.8 ± 0.1 with Asp143; 3.76 ± 0.08 in the series with Glu135; 3.81 ± 0.1 in the series with Glu101. In addition, the pKa with Glu129 is 3.75 ± 0.09; with Asp19, 2.21 ± 0.07; with Glu57, 3.49 ± 0.09; in the series with Asp21, 6.53 ± 0.02; with Glu122 it was 3.89 ± 0.09; in the series with Asp83, <2.2. The pKa with Asp146 is on record as 3.86 ± 0.05; in the series with Asp95, 2.16 ± 0.07; in the series with Glu52, 3.93 ± 0.08; with Glu73 it was 3.31 ± 0.01; with Glu67, 3.76 ± 0.07; in the series with Asp77, <2.2. Besides, the pKa in the series with Glu43 is on record as 4.32 ± 0.04; with Asp40, 3.87 ± 0.09.
